According to patent EP1508806A1:

Assays:
[1] = molecular target: regulatory p85α subunit of bovine PI 3-kinase (recombinant, GST part removed with thrombin) (bovine) (UniProt P23727); test: SPR competition: soluble peptide against the same peptide immobilised, 100 nM p85α
[2] = molecular target: rIRS-1 449-664 S570A GST fusion protein, pretreated with PKC-ζ and then tyrosine phosphorylated by insulin receptor (rat) (UniProt P35570); test: GST pull-down, anti-p85α immunoblot quantified; relative to the insulin-stimulated control value set as 100%
[3] = molecular target: rIRS-1 449-664 S612A GST fusion protein, pretreated with PKC-ζ and then tyrosine phosphorylated by insulin receptor (rat) (UniProt P35570); test: as above
[4] = molecular target: rIRS-1 449-664 GST fusion protein, pretreated with PKC-ζ and then tyrosine phosphorylated by insulin receptor (rat) (UniProt P35570); test: GST pull-down, anti-p85α immunoblot quantified; against the insulin-stimulated value without PKC-ζ set as 100%
[5] = molecular target: rIRS-1 449-664 GST fusion protein, pretreated with PKC from rat brain and then tyrosine phosphorylated by insulin receptor (rat) (UniProt P35570); test: GST pull-down, anti-p85α immunoblot quantified; against the insulin-stimulated value without PKC-rb set as 100%
[6] = molecular target: GST fusion protein containing amino acids 449-664 of rat IRS-1 (rIRS-1 449-664), not phosphorylated (rat) (UniProt P35570); test: cell-based or functional assay
[7] = molecular target: rIRS-1 449-664 GST fusion protein, phosphorylated in vitro by PKC from rat brain (rat) (UniProt P35570); test: cell-based or functional assay
[8] = molecular target: rIRS-1 449-664 GST fusion protein, phosphorylated in vitro by PKC-ζ (rat) (UniProt P35570); test: cell-based or functional assay
[9] = molecular target: rIRS-1 449-664 S570A GST fusion protein, pretreated with PKC-ζ (rat) (UniProt P35570); test: cell-based or functional assay
[10] = molecular target: rIRS-1 449-664 S612A GST fusion protein, pretreated with PKC-ζ (rat) (UniProt P35570); test: cell-based or functional assay

Sequence of UniProt P23727 (P23727 whole entry, the tested form may be a part): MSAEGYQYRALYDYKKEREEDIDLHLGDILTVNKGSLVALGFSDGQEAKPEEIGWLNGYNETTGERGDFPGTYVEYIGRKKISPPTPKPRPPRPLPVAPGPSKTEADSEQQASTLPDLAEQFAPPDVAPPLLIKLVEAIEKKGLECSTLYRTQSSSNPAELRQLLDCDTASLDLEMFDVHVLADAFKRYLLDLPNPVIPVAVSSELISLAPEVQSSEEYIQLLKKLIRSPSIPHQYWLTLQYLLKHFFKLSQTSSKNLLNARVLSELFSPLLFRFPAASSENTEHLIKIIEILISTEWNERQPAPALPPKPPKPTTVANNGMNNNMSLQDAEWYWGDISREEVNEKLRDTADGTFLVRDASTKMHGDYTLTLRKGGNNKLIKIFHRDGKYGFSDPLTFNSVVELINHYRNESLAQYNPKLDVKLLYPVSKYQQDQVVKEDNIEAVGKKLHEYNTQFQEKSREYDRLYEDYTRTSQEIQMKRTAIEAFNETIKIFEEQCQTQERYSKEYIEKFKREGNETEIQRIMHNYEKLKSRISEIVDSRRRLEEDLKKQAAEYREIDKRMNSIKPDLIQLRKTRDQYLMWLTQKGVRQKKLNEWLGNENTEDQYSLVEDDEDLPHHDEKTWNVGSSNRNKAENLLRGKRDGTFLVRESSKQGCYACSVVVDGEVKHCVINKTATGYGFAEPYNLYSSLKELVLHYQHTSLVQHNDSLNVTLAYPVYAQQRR

## IRS-1 peptide pY608-pS612, DDGpYMPMpSPGV (amino acids 605 to 615 of rat IRS-1, phosphotyrosine 608 and phosphoserine 612)
[1]
  peptide concentration for complete inhibition: 10 µM

## regulatory p85α subunit of bovine PI 3-kinase (recombinant, GST part removed with thrombin) (from UniProt P23727 1-724)
[2]
  p85α binding, percent of control: 43%
[3]
  p85α binding, percent of control: 28%
[4]
  percent inhibition of p85α binding: 81%
[5]
  percent inhibition of the association of p85α: 49%

## IRS-1 peptide pY608, DDGpYMPMSPGV (amino acids 605 to 615 of rat IRS-1, phosphotyrosine 608)
[1]
  peptide concentration for complete inhibition: 10 µM

## insulin receptor, WGA-purified from rat liver, insulin-stimulated and autophosphorylated (from UniProt P15127 27-1383)
[6]
  insulin-stimulated tyrosine phosphorylation of rIRS-1^449-664 (anti-phosphotyrosine immunoblot): 8.8 fold
[7]
  reduction of insulin-stimulated Tyr-phosphorylation of rIRS-1^449-664 after PKC-rb pretreatment: 27%
[8]
  inhibition of tyrosine phosphorylation of rIRS-1^449-664 after PKC-ζ pretreatment: 46%
  reduction of tyrosine phosphorylation by IR after PKC-ζ pretreatment: 30 to 40%
[9]
  reduction of tyrosine phosphorylation by IR after PKC-ζ pretreatment: 30 to 40%
[10]
  reduction of tyrosine phosphorylation by IR after PKC-ζ pretreatment: 30 to 40%
